We go through two proteins from PMC6731152 (Molecular cell, 2019).

Data set [1] deals with the molecule itself. Put plainly: cryo-EM structure.
Data set [2] deals with the molecule itself. Put plainly: SEC. On the technique in general: SEC sorts molecules by how far they enter the pores of the column.

B1: ^coreAFG3L2^WB/PI (human AFG3L2 catalytic core, residues 272-797, E408Q/E575Q) (domain or fragment)
chain: not shown
In general, stoichiometry N refers to a count of units in the complex or per binding partner. Take B1: in data set [1], the “stoichiometry N” value stood at 6.

B2: ^coreAFG3L2^WB/PI/Δ781−797 (domain or fragment)
chain: not shown
Turning to B2, in data set [2], the binding result is recorded as “binds”.
